Publication PMC10397247

Key:
4H3049-AA = target: T1, 4H3049-AA; assay: two-hybrid library CCmax; details: mean of both orientations;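 further: natural log of median RNA to DNA barcode read ratio; higher means stronger binding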
T1 chain: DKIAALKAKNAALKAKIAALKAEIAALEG

4H3974-AA = target: T2, 4H3974-AA; assay: two-hybrid library CCmax; details: mean of both orientations;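 further: natural log of median RNA to DNA barcode read ratio; higher means stronger binding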
T2 chain: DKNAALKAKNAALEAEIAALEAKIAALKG

4H249-AA = target: T3, 4H249-AA; assay: two-hybrid library CCmax; details: mean of both orientations;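 further: natural log of median RNA to DNA barcode read ratio; higher means stronger binding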
T3 chain: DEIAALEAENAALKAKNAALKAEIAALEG

4H235-AA = target: T4, 4H235-AA; assay: two-hybrid library CCmax; details: mean of both orientations;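 further: natural log of median RNA to DNA barcode read ratio; higher means stronger binding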
T4 chain: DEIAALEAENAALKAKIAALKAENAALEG

4H2774-AA = target: T5, 4H2774-AA; assay: two-hybrid library CCmax; details: mean of both orientations
T5 chain: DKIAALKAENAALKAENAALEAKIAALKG

4H3915-AA = target: T6, 4H3915-AA; assay: two-hybrid library CCmax; details: mean of both orientations
T6 chain: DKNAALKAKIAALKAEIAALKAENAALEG

4H3619-AA = target: T7, 4H3619-AA; assay: two-hybrid library CCmax; details: mean of both orientations
T7 chain: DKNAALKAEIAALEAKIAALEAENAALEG

4H3777-AA = target: T8, 4H3777-AA; assay: two-hybrid library CCmax; details: mean of both orientations
T8 chain: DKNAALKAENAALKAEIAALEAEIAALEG

4H2760-AA = target: T9, 4H2760-AA; assay: two-hybrid library CCmax; details: mean of both orientations
T9 chain: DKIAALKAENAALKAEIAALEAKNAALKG

4H1593-AA = target: T10, 4H1593-AA; assay: two-hybrid library CCmax
T10 chain: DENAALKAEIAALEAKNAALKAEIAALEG

4H380-AA = target: T11, 4H380-AA; assay: two-hybrid library CCmax; details: mean of both orientations
T11 chain: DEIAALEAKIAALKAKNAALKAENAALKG

4H341-AA = target: T12, 4H341-AA; assay: two-hybrid library CCmax; details: mean of both orientations
T12 chain: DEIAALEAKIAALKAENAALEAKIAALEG

4H1878-AA = target: T13, 4H1878-AA; assay: two-hybrid library CCmax; details: mean of both orientations
T13 chain: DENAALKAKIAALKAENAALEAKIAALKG

4H2580-AA = target: T14, 4H2580-AA; assay: two-hybrid library CCmax; details: mean of both orientations
T14 chain: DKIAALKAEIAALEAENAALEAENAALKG

4H324-AA = target: T15, 4H324-AA; assay: two-hybrid library CCmax; details: mean of both orientations
T15 chain: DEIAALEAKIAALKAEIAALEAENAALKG

4H2961-AA = target: T16, 4H2961-AA; assay: two-hybrid library CCmax; details: mean of both orientations
T16 chain: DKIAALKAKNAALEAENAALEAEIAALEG

4H3629-AA = target: T17, 4H3629-AA; assay: two-hybrid library CCmax; details: mean of both orientations
T17 chain: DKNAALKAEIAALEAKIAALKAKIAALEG

4H3094-AA = target: T18, 4H3094-AA; assay: two-hybrid library CCmax; details: mean of both orientations
T18 chain: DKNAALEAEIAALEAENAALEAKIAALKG

4H432-AA = target: T19, 4H432-AA; assay: two-hybrid library CCmax; details: mean of both orientations
T19 chain: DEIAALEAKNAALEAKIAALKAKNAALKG

4H3449-AA = target: T20, 4H3449-AA; assay: two-hybrid library CCmax; details: mean of both orientations
T20 chain: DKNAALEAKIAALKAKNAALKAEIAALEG

4H63-AA = target: T21, 4H63-AA; assay: two-hybrid library CCmax; details: mean of both orientations
T21 chain: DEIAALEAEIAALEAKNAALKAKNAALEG

4H2947-AA = target: T22, 4H2947-AA; assay: two-hybrid library CCmax; details: mean of both orientations
T22 chain: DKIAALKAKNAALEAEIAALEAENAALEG

4H2903-AA = target: T23, 4H2903-AA; assay: two-hybrid library CCmax; details: mean of both orientations
T23 chain: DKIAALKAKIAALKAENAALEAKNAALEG

4H2604-AA = target: T24, 4H2604-AA; assay: two-hybrid library CCmax; details: mean of both orientations
T24 chain: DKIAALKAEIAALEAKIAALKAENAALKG

4H446-AA = target: T25, 4H446-AA; assay: two-hybrid library CCmax; details: mean of both orientations
T25 chain: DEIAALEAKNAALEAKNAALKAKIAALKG

4H2621-AA = target: T26, 4H2621-AA; assay: two-hybrid library CCmax; details: mean of both orientations
T26 chain: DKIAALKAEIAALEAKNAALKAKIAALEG

P5bH1 = target: T27, P5bH1; assay: two-hybrid library CCNG1
T27 chain: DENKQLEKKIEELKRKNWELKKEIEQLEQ

P6bH1 = target: T28, P6bH1; assay: two-hybrid library CCNG1
T28 chain: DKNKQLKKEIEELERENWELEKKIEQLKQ

P8bH1 = target: T29, P8bH1; assay: two-hybrid library CCNG1
T29 chain: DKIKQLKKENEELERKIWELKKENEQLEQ

P3bH1 = target: T30, P3bH1; assay: two-hybrid library CCNG1
T30 chain: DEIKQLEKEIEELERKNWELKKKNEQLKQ

P4bH1 = target: T31, P4bH1; assay: two-hybrid library CCNG1
T31 chain: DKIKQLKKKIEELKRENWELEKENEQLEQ

P7bH1 = target: T32, P7bH1; assay: two-hybrid library CCNG1
T32 chain: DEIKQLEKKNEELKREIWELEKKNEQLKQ

P9bH1 = target: T33, P9bH1; assay: two-hybrid library CCNG1
T33 chain: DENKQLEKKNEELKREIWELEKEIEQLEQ

B1: 4H1593-AA (peptide)
chain: DENAALKAEIAALEAKNAALKAEIAALEG
4H3049-AA
  interaction score: -0.661
4H3974-AA
  interaction score: -1.15
4H249-AA
  interaction score: -1.77
4H235-AA
  interaction score: 0.603
4H2774-AA
  interaction score: -0.0172
4H3915-AA
  interaction score: -1.62
4H3619-AA
  interaction score: -1.38
4H3777-AA
  interaction score: -1.54
4H2760-AA
  interaction score: -0.517
4H1593-AA
  interaction score: -1.04
4H380-AA
  interaction score: -1.5
4H341-AA
  interaction score: 2.13
4H1878-AA
  interaction score: 2.3
4H2580-AA
  interaction score: -0.97
4H324-AA
  interaction score: -1.58
4H2961-AA
  interaction score: -1.89
4H3629-AA
  interaction score: -0.594
4H3094-AA
  interaction score: 1.88
4H432-AA
  interaction score: -0.391
4H3449-AA
  interaction score: -1.62
4H63-AA
  interaction score: -1.97
4H2947-AA
  interaction score: -1.37
4H2903-AA
  interaction score: -0.456
4H2604-AA
  interaction score: 0.383
4H446-AA
  interaction score: -1.84
4H2621-AA
  interaction score: -0.899

B2: P3bH1 (peptide)
chain: DEIKQLEKEIEELERKNWELKKKNEQLKQ
P5bH1
  interaction score: 1.1
P6bH1
  interaction score: 0.419
P8bH1
  interaction score: 0.173
P3bH1
  interaction score: -0.241
P4bH1
  interaction score: 1.13
P7bH1
  interaction score: -0.271
P9bH1
  interaction score: -0.408
